Source: FireProtDB (doi:10.1110/ps.051460505)
Where “and” joins values, the source holds several entries; their conditions need not be identical. Equal entries are not always repeated.

B1: Gamma-crystallin D, P07320 (parent)
chain: MGKITLYEDRGFQGRHYECSSDHPNLQPYLSRCNSARVDSGCWMLYEQPNYSGLQYFLRRGDYADHQQWMGLSDSVRSCRLIPHSGSHRIRLYEREDYRGQMIEFTEDCSCLQDRFRFNEIHSLNVLEGSWVLYELSNYRGRQYLLMPGDYRRYQDWGATNARVGSLRRVIDFS

Variants of: B1
Details: Homo sapiens; pH 7; 37 °C; GdnHCl; Fluorescence; Sodium phosphate 10 mM; transition: 3; structure 1HK0; whole UniProt chain shown

| Variant | ddG of mutation (higher = less stable) | denaturant m value | denaturant midpoint (higher = more stable) | unfolding free energy |
| --- | --- | --- | --- | --- |
| R80A | 1 kcal/mol and 1.3 kcal/mol | 3.4 kcal/mol/M and 2.7 kcal/mol/M | 1.8 M and 2.9 M | 6.7 kcal/mol and 7.6 kcal/mol |
| R80A M147A | – | 3.2 kcal/mol/M | 1.7 M and 2.8 M | 5.6 kcal/mol and 8.9 kcal/mol |
| M147A | 0 kcal/mol | 3.1 kcal/mol/M | 2.8 M | 8.9 kcal/mol |
| Q143A | – | 3.8 kcal/mol/M and 3 kcal/mol/M | 1.9 M and 3 M | 7.2 kcal/mol and 9 kcal/mol |
| Q55A | – | 3.8 kcal/mol/M and 3.4 kcal/mol/M | 2 M and 2.9 M | 7.5 kcal/mol and 9.6 kcal/mol |
| Q55A Q143A | – | 3.5 kcal/mol/M and 3.1 kcal/mol/M | 1.8 M and 3.1 M | 6.3 kcal/mol and 9.6 kcal/mol |
